Test results as given in patent US20260274985A1 (MYTHIC THERAPEUTICS, published 2026).
Where a chain is given by its changes, count along the chain named. One block for each binder: values may come before it.

What was measured:
[1] = target: T1, Human TROP2 Protein, His Tag (Acro Biosystems) (human, UniProt P09758 27-274); assay: BLI (Octet), Ab on anti-human Fc sensor, 50 nM TROP2-His; 2 = No change vs parent
T1 construct: Bought protein; not shown: His tag
T1 sequence (looked up): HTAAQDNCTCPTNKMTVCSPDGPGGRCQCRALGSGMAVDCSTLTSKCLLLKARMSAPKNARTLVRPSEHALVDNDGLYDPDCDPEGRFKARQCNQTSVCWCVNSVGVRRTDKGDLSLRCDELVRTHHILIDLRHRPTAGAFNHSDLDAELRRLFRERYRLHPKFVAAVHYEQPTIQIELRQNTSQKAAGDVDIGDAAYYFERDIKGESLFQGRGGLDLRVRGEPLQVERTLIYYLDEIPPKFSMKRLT
Method: The resulting diluted supernatants were then captured on an anti-human Fc sensor (Forte Bio). A baseline was established using 1×PBST (50 mM Potassium Phosphate Buffer+150 mM NaCl+0.05% Tween 20) pH 7.4, and the sensor was associated with 50 nM of TROP2 (Human TROP2 Protein, His Tag, Acro Biosystems) in 1×PBST pH 7.4 for 120 sec to generate an association curve. In the dissociation phase, the antibody-antigen complex on the sensor was exposed to 1×PBST pH 7.4 or pH 5.4, for 300 sec. Association and dissociation phase curves were examined for the starting ABPC antibody (with no substitutions) and each corresponding antibody variant at pH 5.4 and pH 7.4 to inform on two criteria: a) enhanced dissociation (i.e., higher koff values) at pH 5.4 due to histidine or alanine substitution compared to the starting ABPC, (with no substitutions), and b) reduced dissociation at pH 7.4 (i.e., lower koff values) compared to pH 5.4 in the antibody variant itself and with the starting ABPC (with no substitutions). […] It was also noted that while some mutations obliterated TROP2 binding, others were tolerated with little or n change in TROP2 binding kinetics.
For each such table, the “MYT #” provides an identifier for each antigen binding protein (ABP), and the values from each column (reading along each row) provide characteristics and data associated with each ABP. […]

[2] = target: T2, Human TROP2 Protein, His Tag (Acro Biosystems) (human, UniProt P09758 27-274); assay: BLI (Octet), IgG on anti-human Fc sensor, 50 nM TROP2-His; 1 = pH dependent
T2 construct: also called TACSTD2; not shown: His tag
T2 sequence (looked up): T1 sequence (looked up)
Method: After allowing for four days of protein expression, cell culture supernatants were collected, quantified by SDS-PAGE analysis (DNS), and the pH dependence of the variant was evaluated using biolayer interferometry (BLI) on an Octet RED 96e instrument. Briefly, cell culture supernatants were diluted based on qualitative expression level of the variant determined by visual examination of SDS-PAGE gels, 5 μL of cell culture supernatant was diluted into 195 μL of 1×PBST, pH 7.4 for high expressors, 25 μL of cell culture supernatant was diluted into 175 μL of 1×PBST, pH 7.4 for medium expressors and 100 μL of cell culture supernatant was diluted into 100 μL of 1×PBST, pH 7.4 for low expressors for loading onto the sensor tips. The resulting diluted supernatants were then captured on an anti-human Fc sensor (Forte Bio). A baseline was established using 1×PBST (50 mM Potassium Phosphate Buffer+150 mM NaCl+0.05% Tween 20) pH 7.4, and the sensor was associated with 50 nM of TROP2 (Human TROP2 Protein, His Tag, Acro Biosystems) in 1×PBST pH 7.4 for 120 sec to generate an association curve. In the dissociation phase, the antibody-antigen complex on the sensor was exposed to 1×PBST pH 7.4 or pH 5.4, for 300 sec. […]

[3] = target: T3, Human TROP2 Protein, His Tag (Acro Biosystems) (human, UniProt P09758 27-274); assay: Octet BLI, IgG on anti-human Fc sensor; 3 = No binding
T3 construct: not shown: His tag
T3 sequence (looked up): T1 sequence (looked up)

[4] = target: T4, Human TROP2 Protein, His Tag (Acro Biosystems) (human, UniProt P09758 27-274); assay: as above
T4 construct: Bought antigen used at 50 nM in the Octet screen; also called TACSTD2; not shown: His tag
T4 sequence (looked up): T1 sequence (looked up)

[5] = target: T5, Human TROP2 Protein, His Tag (Acro Biosystems) (human, UniProt P09758 27-274); assay: BLI (Octet), antibody on anti-human Fc sensor, 50 nM human TROP2-His, dissociation at pH 7.4 or 5.4; grade 1 = pH dependent
T5 construct: Bought protein; also called TACSTD2; not shown: His tag
T5 sequence: T1 sequence (looked up)

[6] = target: T5, Human TROP2 Protein, His Tag (Acro …); assay: BLI (Octet), antibody on anti-human Fc sensor, 50 nM human TROP2-His, dissociation at pH 7.4 or 5.4; grade 2 = No change vs parent

B1: MYT11583 (antibody, V domains shown)
VH: QVQLQQSGSELKKPGASVKVSCKASGYTFTNYGMNWVKQAPGQGLKWMGWINTYTHEPTYTDDFKGRFAFSLDTSVSTAYLQISSLKADDTAVYFCARGGFGSSYWYFDVWGQGSLVTVSS
VL: DIQLTQSPSSLSASVGDRVSITCKASQDVSIAVAWYQQKPGKAPKLLIYSASYRYTGVPDRFSGSGSGTDFTLTISSLQPEDFAVYYCQQHYITPLTFGAGTKVEIK
notes: Sacituzumab variant, His at HCV position 56 (H2 07)
- binding result [1]: binds

B2: MYT13385 (antibody, V domains shown)
VH: B1 VH with H56G, D62H
VL: B1 VL with S30H, S52H
notes: Sacituzumab HC-LC pairing variant
- binding result [2]: binds

B5: MYT12470 (hu7E6SVG variant, LCV substitutions at 93, 94, 97 (Ala at 94)) (antibody, V domains shown)
VH: QVQLQESGPGLVKPSETLSLTCTVSGGSISSYGVHWIRQPPGKGLEWIGVIWTSGVTDYNSALMGRVTISVDTSKNQFSLKLSSVTAADTAVYYCARDGDYDRYTMDYWGQGTLVTVSS
VL: DIVMTQSPDSLAVSLGERATINCRASKSVSTSGYSYMHWYQQKPGQPPKLLIYLASNLESGVPDRFSGSGSGTDFTLTISSLQAEDVAVYYCHASRHLPYTFGQGTKLEIK
notes: Full IgG in Expi293 supernatant
- binding result [5]: binds

B6: MYT12452 (hu7E6SVG variant, LCV substitutions at 94, 101 (Ala at 94)) (antibody, V domains shown)
VH: B5 VH
VL: B5 VL with H93Q, H97E, T101H
notes: as for B5
- binding result [6]: binds

The next lines start with the values.

- binding result [3]: no binding (tested: 50 nM TROP2)
B3: MYT12395 (antibody, V domains shown)
VH: QVQLVQSGAEVKKPGASVKVSCKASGYTFTTAGMQWVRQAPGQGLEWMGWINTHSGVPKYAEDFKGRVTISADTSTSTAYLQLSSLKSEDTAVYYCARSGFGSSYWYFDVWGQGTLVTVSS
VL: B1 VL with L4M, S20T, I31T, S52H, D60S, Q89H, A100Q, V104L
notes: datopotamab VL 52, 89 substituted

- binding result [4]: no binding (tested: 50 nM)
B4: MYT11717 (antibody, V domains shown)
VH: B5 VH with W52H
VL: B5 VL with H93Q, A94H, H97E
notes: hu7E6SVG variant, His at HCV position 52 (H2 03); screened as IgG in Expi293 supernatant
